One molecule from publication PMC4191393, “Selective microRNA uridylation by Zcchc6 (TUT7) and Zcchc11 (TUT4)” can be followed below.

The target of this data set is T1, r.Zcchc11 (TUT4) (Homo sapiens, UniProt Q5TAX3 225-1384).
T1 sequence: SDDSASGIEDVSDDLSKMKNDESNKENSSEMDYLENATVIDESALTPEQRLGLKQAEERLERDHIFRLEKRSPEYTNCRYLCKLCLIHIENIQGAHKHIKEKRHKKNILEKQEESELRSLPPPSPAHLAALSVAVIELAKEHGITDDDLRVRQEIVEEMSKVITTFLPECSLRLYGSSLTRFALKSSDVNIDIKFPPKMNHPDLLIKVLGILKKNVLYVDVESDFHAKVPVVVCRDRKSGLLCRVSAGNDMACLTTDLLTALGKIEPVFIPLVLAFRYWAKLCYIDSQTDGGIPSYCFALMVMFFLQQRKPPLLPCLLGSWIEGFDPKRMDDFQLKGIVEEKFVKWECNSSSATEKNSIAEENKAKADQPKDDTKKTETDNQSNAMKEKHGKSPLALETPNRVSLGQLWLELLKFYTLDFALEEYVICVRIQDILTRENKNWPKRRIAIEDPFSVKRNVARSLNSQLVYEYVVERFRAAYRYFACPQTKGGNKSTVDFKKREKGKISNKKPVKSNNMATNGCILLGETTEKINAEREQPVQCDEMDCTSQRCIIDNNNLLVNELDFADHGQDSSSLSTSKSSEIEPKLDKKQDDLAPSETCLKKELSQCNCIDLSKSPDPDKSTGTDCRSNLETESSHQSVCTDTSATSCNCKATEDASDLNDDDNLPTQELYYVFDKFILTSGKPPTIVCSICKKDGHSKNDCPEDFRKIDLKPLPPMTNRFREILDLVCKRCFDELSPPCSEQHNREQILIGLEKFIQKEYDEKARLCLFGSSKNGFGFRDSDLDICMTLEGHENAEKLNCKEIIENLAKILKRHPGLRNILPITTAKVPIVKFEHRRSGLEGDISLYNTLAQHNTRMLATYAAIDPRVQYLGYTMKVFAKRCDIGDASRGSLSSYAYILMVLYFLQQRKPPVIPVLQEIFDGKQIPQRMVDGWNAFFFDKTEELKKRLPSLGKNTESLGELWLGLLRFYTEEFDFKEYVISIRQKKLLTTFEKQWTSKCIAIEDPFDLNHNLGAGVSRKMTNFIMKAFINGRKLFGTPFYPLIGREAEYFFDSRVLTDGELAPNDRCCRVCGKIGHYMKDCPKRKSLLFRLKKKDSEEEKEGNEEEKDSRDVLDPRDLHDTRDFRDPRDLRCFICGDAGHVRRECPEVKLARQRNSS
Description: EMSA; 2 mM Mg2+; RNA 2.5 nM; EMSA: 500 mM NaCl, 20 mM HEPES pH 7.5, 2 mM MgCl2, 5% glycerol, 1 mM TCEP; 10 ul, 3-50 ng protein, 2.5 nM RNA; native 12% PAGE in 0.5x TBE; temperature not stated. Conditions: protein: recombinant; tags: N-terminal His6-Trx, removed with TEV; label: 5'-32P; single strand. Background: A gel shift assay detects complexes by their altered migration in electrophoresis.

As for UGAGGUAGUAGUUUGUACAGUU (ssRNA) [let-7g guide], the binding result was “binds”.
